Experimental data published in US20140066368A1.
Bridge positions count the residues as written; N and C are the ends. Ends that are not written are not given here.

Molecular target: amylin receptor (membrane-bound, rat basal forebrain membranes containing the nucleus accumbens and surrounding regions) (rat)
Experiment: competition with ^125I Bolton-Hunter amylin on rat basal forebrain membranes, filtration

IC50 [nM]	Molecule
0.015	^28Pro-h-Amylin (peptide)
0.064	^29Pro-h-Amylin (peptide)
0.033	^1Ser-h-Amylin (peptide)
0.148	^1Ala-h-Amylin (peptide)
0.01	KCNTATCATQRLANFLVHSSNNFGPILPPTNVGSNTY-NH2 (disulfide 2-7) [^25,28,29Pro-h-Amylin]
0.085	CNTATCATQRLANFLVHSSNNFGPILPSTNVGSNTY [des-^1Lys^25,28Pro-h-Amylin]
0.082	CNTATCATQRLANFLVRSSNNFGPILPSTNVGSNTY [des-^1Lys^18Arg^25,28Pro-h-Amylin]
0.014	CNTATCATQRLANFLVHSSNNFGPILPPTNVGSNTY [des-^1Lys^25,28,29Pro-h-Amylin]
0.021	CNTATCATQRLANFLVRSSNNFGPILPPTNVGSNTY [des-^1Lys^18Arg^25,28,29Pro-h-Amylin]
0.026	KCNTATCATQRLANFLVHSSNNFGPILPSTNVGSNTY [^25,28Pro-h-Amylin]
0.021	KCNTATCATQRLANFLVRSSNNFGPILPPTNVGSNTY [^18Arg^25,28,29Pro-h-Amylin]
0.032	KCNTATCATQRLANFLVRSSNNFGPILPSTNVGSNTY [^18Arg^25,28Pro-h-Amylin]
0.31	KDNTATKATQRLANFLVHSSNNFGAILSSTNVGSNTY (lactam 2-7; ends not checked) [^2,7Cyclo-[^2Asp,^7Lys]-h-Amylin]
0.018	KCNTATCATQRLANFLVHSSNNFGPVLPPTNVGSNTY [^25Pro^26Val^28,29Pro-h-Amylin]
